Columns and labels:
43A-c = conditions: read-out: apparent Km; 100 mM citrate pH 6, 1 g/liter BSA, 50°C
purified protein = substrate: O=[N+]([O-])c1ccc(O[C@@H]2O[C@H](CO)[C@@H](O)[C@H](O)[C@H]2O)cc1; assay: purified protein; conditions: 100 mM citrate pH 6, 1 g/liter BSA, 50°C

Row | Km (43A-c) [µM] | Molecule | Km (purified protein) [µM] | kcat (purified protein) [s⁻¹]
1 | 600 | O=[N+]([O-])c1ccc(O[C@@H]2OC[C@@H](O)[C@H](O)[C@H]2O)cc1 [pNPX] | – | –
2 | – | Bgl1C (Thermobifida fusca) (protein) TSQSTTPLGNLEETPKPDIRFPSDFVWGVATASFQIEGSTTADGRGPSIWDTFCATPGKVENGDTGDPACDHYNRYRDDVALMRELGVGAYRFSIAWPRIQPEGKGTPVEAGLDFYDRLVDCLLEAGIEPWPTLYHWDLPQALEDAGGWPNRDTAKRFADYAEIVYRRLGDRITNWNTLNEPWCSAFLGYASGVHAPGRQEPAAALAAAHHLMLGHGLAAAVMRDLAGQAGRSVRIGVAHNQTTVRPYTDSEADRDAARRIDALRNRIFTEPLVKGRYPEDLIEDVAAVTDYSFVQDGDLKTISANLDMMGVNFYNPSWVSGNRENGGSDRLPDEGYSPSVGSEHVVEVDPGLPVTAMGWPIDPTGLYDTLTRLANDYPGLPLYITENGAAFEDKVVDGAVHDTERIAYLDSHLRAAHAAIEAGVPLKGYFAWSFMDNFEWALGYGKRFGIVHVDYESQTRTVKDSGWWYSRVMRNGGIFGQE | 600 | 2.08
